Among the data in publication PMC2855763 are stoichiometry N values, retold here.

In assay [1] the target is VFP (vivid Verde fluorescent protein) (Cyphastrea microphthalma). Kind of assay: SEC. (Size exclusion chromatography separates by hydrodynamic size, large species first.)
Assay [2] has as its target dVFP (VFP T160A) (Cyphastrea microphthalma). Kind of assay: SEC.

Turning to “VFP (vivid Verde fluorescent protein) (natural protein)”, the stoichiometry N (as a rule, a count of units in the complex or per binding partner) in assay [1] was 2.
Substance dVFP (VFP T160A) (natural protein) came in with a stoichiometry N in assay [2] of 2.
